The record followed here is paper PMC10786891, “Massively parallel profiling of RNA-targeting CRISPR-Cas13d”.

Positions count from the first letter of the chain named. Names and notes keep the numbering of the source.

To fix the notation:
T1: EsCas13d, nuclease-dead (Eubacterium siraeum, UniProt B0MS50, R295A;H300A;R849A;H854A)
T1 sequence: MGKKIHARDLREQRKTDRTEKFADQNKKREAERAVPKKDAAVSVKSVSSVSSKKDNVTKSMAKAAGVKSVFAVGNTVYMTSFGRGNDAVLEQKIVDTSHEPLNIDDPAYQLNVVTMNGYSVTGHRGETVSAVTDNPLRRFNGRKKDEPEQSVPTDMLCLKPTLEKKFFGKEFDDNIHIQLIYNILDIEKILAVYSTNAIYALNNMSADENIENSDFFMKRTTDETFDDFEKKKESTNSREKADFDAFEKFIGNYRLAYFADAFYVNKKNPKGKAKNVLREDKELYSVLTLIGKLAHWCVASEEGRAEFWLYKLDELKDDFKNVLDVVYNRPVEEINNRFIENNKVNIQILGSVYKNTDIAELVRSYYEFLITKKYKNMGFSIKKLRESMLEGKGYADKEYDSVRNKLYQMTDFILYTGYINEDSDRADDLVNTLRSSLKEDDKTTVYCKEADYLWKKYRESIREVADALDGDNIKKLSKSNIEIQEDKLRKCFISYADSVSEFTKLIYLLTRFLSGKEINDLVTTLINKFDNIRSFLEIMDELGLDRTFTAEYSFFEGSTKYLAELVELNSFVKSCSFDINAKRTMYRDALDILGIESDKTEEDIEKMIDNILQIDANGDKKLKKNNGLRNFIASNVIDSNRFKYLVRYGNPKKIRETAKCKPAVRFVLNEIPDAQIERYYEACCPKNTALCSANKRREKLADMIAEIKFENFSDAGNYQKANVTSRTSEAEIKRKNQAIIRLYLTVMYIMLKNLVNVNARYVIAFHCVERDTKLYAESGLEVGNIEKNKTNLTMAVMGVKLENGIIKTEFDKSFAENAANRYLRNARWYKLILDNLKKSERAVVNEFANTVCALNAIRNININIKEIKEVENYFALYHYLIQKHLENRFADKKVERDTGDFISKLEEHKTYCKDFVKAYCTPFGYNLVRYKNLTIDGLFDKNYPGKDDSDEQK

B1: target 1 MT 5'PFS UCA 3'PFS AUC (mixed)
RNA 1: CACCCGUGCAAAAAUGCAGGGGUCUAAAACUGAGCGGAUAACCUCUCUAUGG
RNA 2: GGGAAUGGAUCCACAUCUACGAAUUCUCACCAUAGAGAGGUUAUCCGCUCAAUCAGAUCGGAAGAGCACACGU
B2: target 1 insG 3' of 14,insA 3' of 7 (mixed)
RNA 1: B1 RNA 1
RNA 2: GGGAAUGGAUCCACAUCUACGAAUUCGUACCAUAGAGAGGGUUAUCACGCUCACCGAGAUCGGAAGAGCACACGU
B3: target 1 MT 5'PFS GUC 3'PFS UGG (mixed)
RNA 1: B1 RNA 1
RNA 2: B1 RNA 2 with U27G, C28U, A29C, A52U, U53G, C54G
B4: target 1 MT 5'PFS GAG 3'PFS AUA (mixed)
RNA 1: B1 RNA 1
RNA 2: B1 RNA 2 with U27G, C28A, A29G, C54A
B5: target 1 MT 5'PFS UUG 3'PFS UCU (mixed)
RNA 1: B1 RNA 1
RNA 2: B1 RNA 2 with C28U, A29G, A52U, U53C, C54U
B6: target 1 MT 5'PFS GGC 3'PFS CAG (mixed)
RNA 1: B1 RNA 1
RNA 2: B1 RNA 2 with U27G, C28G, A29C, A52C, U53A, C54G
B7: target 1 MT 5'PFS AAC 3'PFS AGA (mixed)
RNA 1: B1 RNA 1
RNA 2: B1 RNA 2 with U27A, C28A, A29C, U53G, C54A
B8: target 1 MT 5'PFS GAG 3'PFS AUU (mixed)
RNA 1: B1 RNA 1
RNA 2: B1 RNA 2 with U27G, C28A, A29G, C54U
B9: target 1 MT 5'PFS UUA 3'PFS ACC (mixed)
RNA 1: B1 RNA 1
RNA 2: B1 RNA 2 with C28U, U53C
B10: target 1 MT 5'PFS GGA 3'PFS AAU (mixed)
RNA 1: B1 RNA 1
RNA 2: B1 RNA 2 with U27G, C28G, U53A, C54U
B11: target 1 MT 5'PFS GGG 3'PFS GUG (mixed)
RNA 1: B1 RNA 1
RNA 2: B1 RNA 2 with U27G, C28G, A29G, A52G, C54G
B12: target 1 MT 5'PFS GUC 3'PFS UGA (mixed)
RNA 1: B1 RNA 1
RNA 2: B1 RNA 2 with U27G, C28U, A29C, A52U, U53G, C54A
B13: target 1 C2A,A14C (mixed)
RNA 1: B1 RNA 1
RNA 2: B1 RNA 2 with U27G, C28U, A38C, C50A, A52C, U53C, C54G
B14: target 1 MT 5'PFS AAC 3'PFS AGG (mixed)
RNA 1: B1 RNA 1
RNA 2: B1 RNA 2 with U27A, C28A, A29C, U53G, C54G
B15: target 1 MT 5'PFS UUA 3'PFS UCA (mixed)
RNA 1: B1 RNA 1
RNA 2: B1 RNA 2 with C28U, A52U, U53C, C54A
B16: target 1 MT 5'PFS GGA 3'PFS AAG (mixed)
RNA 1: B1 RNA 1
RNA 2: B1 RNA 2 with U27G, C28G, U53A, C54G
B17: target 1 MT 5'PFS GAC 3'PFS UGU (mixed)
RNA 1: B1 RNA 1
RNA 2: B1 RNA 2 with U27G, C28A, A29C, A52U, U53G, C54U
B18: target 1 MT 5'PFS GGA 3'PFS AAC (mixed)
RNA 1: B1 RNA 1
RNA 2: B1 RNA 2 with U27G, C28G, U53A
B19: target 1 MT 5'PFS CUC 3'PFS CAU (mixed)
RNA 1: B1 RNA 1
RNA 2: B1 RNA 2 with U27C, C28U, A29C, A52C, U53A, C54U
B20: target 1 MT 5'PFS GGA 3'PFS AAA (mixed)
RNA 1: B1 RNA 1
RNA 2: B1 RNA 2 with U27G, C28G, U53A, C54A
B21: target 1 MT 5'PFS UUU 3'PFS AUC (mixed)
RNA 1: B1 RNA 1
RNA 2: B1 RNA 2 with C28U, A29U
B22: target 1 MT 5'PFS GAC 3'PFS UGA (mixed)
RNA 1: B1 RNA 1
RNA 2: B1 RNA 2 with U27G, C28A, A29C, A52U, U53G, C54A
B23: target 1 MT 5'PFS GGC 3'PFS AAG (mixed)
RNA 1: B1 RNA 1
RNA 2: B1 RNA 2 with U27G, C28G, A29C, U53A, C54G
B24: target 1 MT 5'PFS GGA 3'PFS CCG (mixed)
RNA 1: B1 RNA 1
RNA 2: B1 RNA 2 with U27G, C28G, A52C, U53C, C54G
B25: target 1 MT 5'PFS UUG 3'PFS UCG (mixed)
RNA 1: B1 RNA 1
RNA 2: B1 RNA 2 with C28U, A29G, A52U, U53C, C54G
B26: target 1 MT 5'PFS UUA 3'PFS ACA (mixed)
RNA 1: B1 RNA 1
RNA 2: B1 RNA 2 with C28U, U53C, C54A
B27: target 1 MT 5'PFS GAG 3'PFS AUC (mixed)
RNA 1: B1 RNA 1
RNA 2: B1 RNA 2 with U27G, C28A, A29G
B28: target 1 MT 5'PFS UUA 3'PFS UCG (mixed)
RNA 1: B1 RNA 1
RNA 2: B1 RNA 2 with C28U, A52U, U53C, C54G
B29: target 1 MT 5'PFS UUA 3'PFS ACG (mixed)
RNA 1: B1 RNA 1
RNA 2: B1 RNA 2 with C28U, U53C, C54G
B30: target 1 MT 5'PFS GGA 3'PFS CCU (mixed)
RNA 1: B1 RNA 1
RNA 2: B1 RNA 2 with U27G, C28G, A52C, U53C, C54U
B31: target 1 MT 5'PFS GGC 3'PFS CAC (mixed)
RNA 1: B1 RNA 1
RNA 2: B1 RNA 2 with U27G, C28G, A29C, A52C, U53A
B32: target 1 MT 5'PFS GUC 3'PFS UGU (mixed)
RNA 1: B1 RNA 1
RNA 2: B1 RNA 2 with U27G, C28U, A29C, A52U, U53G, C54U
B33: target 1 insU 3' of 22,insC 3' of 12 (mixed)
RNA 1: B1 RNA 1
RNA 2: GGGAAUGGAUCCACAUCUACGAAUUCGUACUCAUAGAGAGGCUUAUCCGCUCACCGAGAUCGGAAGAGCACACGU
B34: target 1 C2U,A9G (mixed)
RNA 1: B1 RNA 1
RNA 2: B1 RNA 2 with U27G, C28U, A43G, C50U, A52C, U53C, C54G
B35: target 1 MT 5'PFS GUC 3'PFS UGC (mixed)
RNA 1: B1 RNA 1
RNA 2: B1 RNA 2 with U27G, C28U, A29C, A52U, U53G
B36: target 1 MT 5'PFS CAU 3'PFS UUA (mixed)
RNA 1: B1 RNA 1
RNA 2: B1 RNA 2 with U27C, C28A, A29U, A52U, C54A
B37: target 1 MT 5'PFS CAG 3'PFS CUG (mixed)
RNA 1: B1 RNA 1
RNA 2: B1 RNA 2 with U27C, C28A, A29G, A52C, C54G

In this data set the target is T1, EsCas13d, nuclease-dead. Kind of data set: crRNA (strand 1, pre-loaded); Mg2+; 40 mM Tris-HCl pH 7.5, 150 mM NaCl, 6 mM MgCl2, 1 mM DTT, 0.1% Tween-20, 0.2 mg/ml BSA; 25 C; 10 min per concentration, then washed. Particulars: tags: His6-TwinStrep-SUMO cleaved; N-terminal SNAP kept (SNAP-Surface 488); label: 3' end held by stalled T7 RNA polymerase.
Turning to B1, the Kd is roughly 11 nM. As to B2, the dissociation constant (Kd) worked out at 6.2 ± 0.5 nM.

In turn, B3 displayed a Kd of 65 ± 15.5 nM. To B4 belongs 34 ± 8.5 nM; to B5, 20.9 ± 3.9 nM. The same measure for B6: 25.5 ± 8.5 nM; for B7: roughly 27 nM. B8 yielded a Kd of 36 ± 11 nM. Turning to B9, the Kd is roughly 22.5 nM. B10 returned an equilibrium dissociation constant (Kd) of 21 ± 5.5 nM. To B11 belongs 7.25 ± 0.95 nM.

The molecule B12 showed a Kd of 14.7 ± 3.4 nM.

Turning to B13, the Kd came out at 48.7 ± 3.1 nM. The same measure for B14: 59 ± 19 nM; for B15: 25 ± 6.5 nM; for B16: 24.1 ± 3.95 nM.

Turning to B17, the Kd came out at 41.5 ± 12.5 nM. Turning to B18, binding was put at a Kd of 24.5 ± 5 nM. As for B19, the dissociation constant Kd is roughly 55 nM. Regarding B20, the Kd stood at 41 ± 10 nM. To B21 belongs 55 ± 18 nM; to B22, roughly 27.2 nM; to B23, 36 ± 10 nM.

For the molecule B24, the Kd was 28.5 ± 7.5 nM. The same measure for B25: 58.5 ± 22.5 nM; for B26: 37 ± 13 nM; for B27: roughly 60 nM.

B28: the equilibrium dissociation constant (Kd) worked out at 13.6 ± 2.85 nM. To B29 belongs 21.8 ± 4.7 nM; to B30, 10.3 ± 2.85 nM. As to B31, the Kd was roughly 17 nM. The same measure for B32: 21.5 ± 5 nM. The same measure for B33: 92 ± 34 nM; for B34: 15.4 ± 1.4 nM. In turn, B35 displayed an equilibrium dissociation constant (Kd) of 13.2 ± 2.95 nM.

With B36, the Kd is roughly 70 nM. As for B37, the dissociation constant Kd was 19 ± 7.5 nM.

The Kd is the free concentration of one partner at which half of the binding sites on the other are occupied at equilibrium, for simple one-to-one binding. High values mean lower affinity, low ones higher affinity.
